Reference: patent publication US11839630B2, “CAR-T cells targeting IL-1RAP and their use” (ETABLISSEMENT FRANCAIS DU SANG, priority 2017, dated 2023)

How the values were obtained:
IL-1RAP = molecular target: T1, IL-1RAP (Homo sapiens, UniProt Q9NPH3); assay: Western blot with #E3C3 mAb; type: binding; details: leukemic cell line lysates; #E3C3 diluted 1:10^3
T1 sequence (Q9NPH3 21-570): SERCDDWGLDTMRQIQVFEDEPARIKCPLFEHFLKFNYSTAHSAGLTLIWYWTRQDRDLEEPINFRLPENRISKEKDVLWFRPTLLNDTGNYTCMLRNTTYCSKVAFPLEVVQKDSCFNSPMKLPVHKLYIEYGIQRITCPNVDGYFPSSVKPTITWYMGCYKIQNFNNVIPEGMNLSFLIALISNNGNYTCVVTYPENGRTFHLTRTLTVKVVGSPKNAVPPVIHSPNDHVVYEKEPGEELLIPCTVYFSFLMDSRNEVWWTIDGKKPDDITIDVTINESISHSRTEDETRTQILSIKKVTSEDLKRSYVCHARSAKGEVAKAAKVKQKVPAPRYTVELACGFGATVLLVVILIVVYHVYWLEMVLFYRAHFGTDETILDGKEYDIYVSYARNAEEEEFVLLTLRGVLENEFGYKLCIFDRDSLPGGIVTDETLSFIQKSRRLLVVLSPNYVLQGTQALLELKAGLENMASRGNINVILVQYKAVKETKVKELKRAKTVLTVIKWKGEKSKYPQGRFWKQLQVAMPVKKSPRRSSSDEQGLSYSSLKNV
Text: FIG. 1: Use of #E3C3 mAb in western blot. The leukemic cell lines KU812, KG-1, Nalm-20, Jurkat, and Raji are used. Transfected HT1080 cell line with IL-1RAP cDNA variant was used as control. […] Line a: detection of IL-1RAP (72 kDA), Line b: detection of the control actin (43 kDA), *: weak signal.
Whole-cell, subcellular or secreted protein fractions of cells listed in example 1 were obtained after sonication and suspended in RIPA lysis and extraction buffer (ThermoFisher Scientific) supplemented with a protease inhibitor cocktail (complete Mini EDTA-free; Roche, Switzerland). Transfected HT1080 cell line with IL-1RAP cDNA variant 1 (NM_002182.2, NCBI) was used as control. […] Transferred proteins on PDVF membranes were probed overnight with either primary IL-1RAP #E3C3 (diluted at 1:10^3), CD3zeta (BD Pharmigen, clone #8D3) or β-actin (1:10^3, clone AC15, #A5441, Sigma-Aldrich) respectively for IL-1RAP, CAR or β-actin expression. Immunodetection staining was performed with a secondary polyclonal antibody sheep anti-mouse IgG (#515-035-062, Jackson, USA). Detection was performed with a camera and Bio-1D software (Vilber-Lourmat, Collegien, France).

monocyte subpopulation = assay: IL-1RAP cell surface staining of healthy donor monocytes; type: binding, human; details: 2/5 peripheral blood and 3/5 bone marrow from healthy donors
Experimental: FIG. 23: Effect of IL-1RAP CAR T cells on healthy hematopoietic cells and efficiency of the safety suicide gene iCASP9 cassette. (A) IL-1RAP cell surface expression on peripheral blood (left) or bone marrow (right) cells from healthy donors (n=5). SSC-A/CD45+ allowed discrimination of subpopulations as lymphocytes (SSC-A low), monocytes (CD33+), granulocytes (SSC-A high), or HSCs (CD33−/CD34+). RFI was calculated from isotype staining and provided in each window. (B) Representative (1 of 3) IL-1RAP staining of whole human cord blood cells. IL-1RAP staining is provided for whole CD34+, CD34+/CD38−, and CD34+/CD38+ HSC cord blood subpopulations. […] Percentages were calculated using absolute cell number determined using Trucount™ tubes based on 5000 fluorescent-bead cytometry acquisition. […] The quantification was performed after acquiring 5000 fluorescent beads. […] Cell killing was calculated as follows: % Dead cells=[1−(absolute number of viable cells in AP1903-treated cells/absolute number of viable cells in untreated cells)]×100. […] (G) Absolute quantification of IL-1RAP CAR T cells injected in a tumor (CML KU812, i.v.) xenograft NSG model 24 h after i.p. AP1903 (white bars) treatment (n=3 mice/group). […]

[1] = system: IL-1RAP-positive (KU812) cell line; assay: FACS screening of hybridoma subclones; type: binding, human; details: 5 monoclonal antibody subclones
Text: Briefly, BALB/c mice (5 weeks, Charles River) were immunized either by foot pad (n=3) or intraperitoneally (n=5) with a recombinant fusion protein consisting of the extra cellular part of IL-1RAP (NM_002182.2, NCBI) and the Fc-part of human IgG1 (R&D Systems, Lille, France). Lymph nodes or spleens cells and blood samples were harvested and cells were fused with the mouse myeloma cell line, then screened by FACS analysis (Becton Dickinson), against IL-1RAP-positive (KU812) and −negative (Raji, KG1) cell lines.
Screening of hybridoma allowed to select 5 monoclonal antibodies subclones that discriminate IL-1RAP positive (KU812 or KG-1 respectively AML or Phi^+p^210 CML) from negative cell lines (Tom-1, NALM-20, Jurkat or Raji, respectively Phi+^p190 B-ALL, Phi-B-ALL, T-ALL or Burkitt's lymphoma).
Molecular characterization was performed by Sanger sequencing of cloned PCR products amplification obtained with degenerated primers specific of the FR1 and constant regions of the heavy and light chains according to the protocol of Wang. Z., et al (J. Immunol. Methods, 2000; 233, pp 167-77). Identification of V-D-J-C gene rearrangement and CDR3 region was obtained after alignment of consensus nucleotide sequences against the IMGT® database using V-QUEST online tool according to Brochet X., et al. (Nucleic Acids Res., 2008, 36, pp 503-8).

- detection in western blot (IL-1RAP): reveals KU812
B1: #E3C3: mouse anti-hIL-1RAP monoclonal antibody subclone generated by standard hybridoma technique; VH SEQ ID NO: 2, VL SEQ ID NO: 4 (antibody, V domains shown)
VH: MGWSCIILFLVATATGVNSQVQLQQPGAELMMPGASVKVSCEASGYTFTDSWMHWVKQRPGQGLEWIGAIDPSDSYTTYNQKFTGKATLSVDESSNTAYMQLSSLTSEDSAVYYCARYYSGSNYISPFPYWGQGTLVTVSA
VL: MESQIQVFVFVFLWLSGVDGDIVMTQSHKFMSTSVGDRVTITCKASLDVSTAVAWYQQKPGQSPKLLIYSASYRYTGVPDRFTGSGSGTDFTFTISSVQAEDLAVYYCQQHYSPPFTFGSGTNLEIK
modifications: Amino acid sequence of chain H (VH) of murine scFv anti-IL-1RAP; Amino acid sequence of chain K (VL) of murine scFv anti-IL-1RAP
- RFI of monocyte staining (weak staining) (monocyte subpopulation): < 2
- relative fluorescence intensity (RFI) by cytometry among subclones [1]: highest relative fluorescence intensity
